{"source": "patent US12365732", "about": "(23ANDME, dated 2025)", "binders": {"B1": {"name": "h10G1 IgG (humanized 10G1) (antibody, V domains shown)", "VH": "EIQLVQSGSELKKPGASVKVSCKASGYPFTTYGMSWVRQAPGQGLEWMGWINTDSGVPTYADDFKGRFVFSLDTSVSTAYLQISSLKAEDTAVYFCARNIYYGWGNFDYWGQGTLVTVSS", "VL": "EIVMTQSPDFQSVTPKEKVTITCRASQDIYRNLHWYQQKPDQTPKLLIKHASDSISGIPSRFSGSGSGTDFTLTINSLEAEDAAAYYCLQGYSMPYTFGGGTKVEIKG", "notes": "human IgG1 N297G"}, "B2": {"name": "10G1 (clone 10G1.3G8), purified hybridoma antibody (antibody, V domains shown)", "VH": "QIQLVQSGPELKKPGETVKISCKASGYPFTTYGMSWVKQAPGKGLKWMGWINTDSGVPTYADDFKGRFAFSLETSANTAYLQINSLKNEDAATYFCARNIYYGWGNFDYWGQGTILTVSS", "VL": "DILMTQSPTTLSVTPGETVSLSCRASQDIYRNLHWYQQKSQGTPRLLIKHASDSISGIPSRFTGSGSGTDFTLSINSVKPEDEGIYYCLQGYSMPYTFGGGTKLEIK", "notes": "murine hybridoma IgG"}, "B3": {"name": "mAb1.v7 IgG (humanized 12F8) (antibody, V domains shown)", "VH": "EVQLVQSGAEVKKPGASVKVSCKASGFTFTNNWMHWVRQAPGQGLEWIGMIHPNSGITNINEKFKNRVTMTTDTSTSTAYMELRSLRSEDTAVYYCRSDGTYEGYFDYWGQGTLVTVSS", "VL": "DIQLTQSPSSLSASVGDRVTITCKASQNVGTAIVWYQQKPGKAPKVLIYSASTRYTGVPSRFSGSGSGTDFTLTISSLQPEDFATYYCQQYSSSPLTFGQGTKVEIKG", "notes": "human IgG1 N297G"}, "B4": {"name": "mAb1.v7.NGS10 IgG (antibody, V domains shown)", "VH": "EVQLVQSGAEVKKPGASVKVSCKASGFTFTNNFMHWVRQAPGQGLEWIGFIHANSGITNINEKFKNRVTMTTDTSTSTAYMELRSLRSEDTAVYYCRSDGIYEGYFDYWGQGTLVTVSS", "VL": "DIQLTQSPSSLSASVGDRVTITCKASQNVGTAIVWYQQKPGKAPKVLIYSASTRYTGVPSRFSGSGSGTDFTLTISSLQPEDFATYYCQQYSSSPLTFGQGTKVEIKG", "notes": "human IgG1 N297G"}, "B5": {"name": "mAb1.v7.NGS9 IgG (antibody, V domains shown)", "VH": "EVQLVQSGAEVKKPGASVKVSCKASGFTFTNNFMHWVRQAPGQGLEWIGMIHANSGITNINEKFKNRVTMTTDTSTSTAYMELRSLRSEDTAVYYCRSDGVYEGYFDYWGQGTLVTVSS", "VL": "DIQLTQSPSSLSASVGDRVTITCKASQNVGTAIVWYQQKPGKAPKVLIYSASTRYTGVPSRFSGSGSGTDFTLTISSLQPEDFATYYCQQYSSSPLTFGQGTKVEIKG", "notes": "human IgG1 N297G"}, "B6": {"name": "mAb1.v7.NGS11 IgG (antibody, V domains shown)", "VH": "EVQLVQSGAEVKKPGASVKVSCKASGFTFTNNFMHWVRQAPGQGLEWIGFIHANSGITNINEKFKNRVTMTTDTSTSTAYMELRSLRSEDTAVYYCRSDGVYEGYFDYWGQGTLVTVSS", "VL": "DIQLTQSPSSLSASVGDRVTITCKASQNVGTAIVWYQQKPGKAPKVLIYSASTRYTGVPSRFSGSGSGTDFTLTISSLQPEDFATYYCQQYSSSPLTFGQGTKVEIKG", "notes": "human IgG1 N297G"}, "B7": {"name": "7E5, purified hybridoma antibody (antibody, V domains shown)", "VH": "QVQLKESGPGLVAPSQSLSIICTVSGFSLTNYGIHWIRQPPGKGLEWLGIIWAGGSTNYNSALMSRLTISKDNSKSQVFLKMNSLQTNDTAIYYCARVSMMGFAYWGQGTLVTVSA", "VL": "QAVVTQESALTTSPGETVTLTCRSSTGAVTTSNYANWVQEKPDHLFTGLIGGTNNRAPGVPARFSGSLIGDKAALTITGAQTEDEAIYFCSLWYGSHWVFGGGTKLTVL", "notes": "murine hybridoma IgG"}, "B8": {"name": "9H4, purified hybridoma antibody (antibody, V domains shown)", "VH": "EVQLLETGGGLVKSGGSLKLSCAASGFTFSDYYMYWVRQTPEKRLEWVAAISDDGTYTYYPDSVKGRFTISRDNANNYLYLQMSSLKSEDTAIYYCAKAGSYDYFDVWGAGTTVTVSS", "VL": "DIVLTQSPASLAVSLGQRAIISCKASQSVTFADTGLMHWYQQKPGQQPKLLIYRASNLEVGVPTRFSGSGSGTDFTLNIHPVEEEDVATYYCQQSREYPWTFGGGTKLEIK", "notes": "murine hybridoma IgG"}}, "key": {"[1]": {"biological_target": "T1, cynomolgus monkey CD96 on cynomolgus monkey PBMCs (cynomolgus monkey, UniProt A0A2K5TWV6 22-569)", "T1 construct": "whole, on cells", "T1 sequence": "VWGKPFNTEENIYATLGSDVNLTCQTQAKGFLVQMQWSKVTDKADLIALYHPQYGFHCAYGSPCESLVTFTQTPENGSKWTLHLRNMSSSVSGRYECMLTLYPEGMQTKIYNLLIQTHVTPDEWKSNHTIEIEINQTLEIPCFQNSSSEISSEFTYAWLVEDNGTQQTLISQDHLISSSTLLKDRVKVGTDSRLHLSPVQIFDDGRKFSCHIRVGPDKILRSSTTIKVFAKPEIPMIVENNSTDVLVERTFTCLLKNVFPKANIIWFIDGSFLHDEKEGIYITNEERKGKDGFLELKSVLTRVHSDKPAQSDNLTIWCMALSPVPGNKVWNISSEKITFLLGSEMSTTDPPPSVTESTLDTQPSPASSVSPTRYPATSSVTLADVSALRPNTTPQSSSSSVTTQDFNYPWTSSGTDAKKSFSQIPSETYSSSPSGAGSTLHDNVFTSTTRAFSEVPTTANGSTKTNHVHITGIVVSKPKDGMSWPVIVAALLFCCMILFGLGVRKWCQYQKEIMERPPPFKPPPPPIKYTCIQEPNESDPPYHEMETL", "assay": "FACS, Ab 0.0256 nM", "description": "The ability of the anti-CD96 antibodies to bind primary immune cells from human and cynomolgus monkey with lower level of receptor expression was measured. Human PBMCs (StemCell Technologies, catalog #70025) and cynomolgus monkey PBMCs (Primate Biologicals, catalog #CM-MC) were incubated with human TruStain FcX (Biolegend, catalog #422302) for 10 minutes at 4° C., followed by incubation with an anti-CD96 antibody for 20 minutes at 4° C. Cells were washed and the anti-CD96 antibody binding was detected by incubation with anti-mouse IgG-PE (Thermo Fisher, catalog #M30204) or anti-human IgG (Fab) 2-PE (Thermo Fisher, catalog #H10104) for 20 minutes at 4° C. Cells were washed, and immune subtypes were labeled with anti-CD3 (BD, catalog #557705), anti-CD4 (Biolegend, catalog #317424) and anti-CD8 (BD, catalog #557760) for 20 minutes at 4° C. Cell binding was analyzed by flow cytometry with a CytoFLEX (Beckman Coulter). Binding curves were calculated as a percentage of cells positive for bound antibody in the cell type of interest."}, "[2]": {"biological_target": "T2, hu-CD96 isoform 1 on HEK293T cells (human, UniProt P40200 22-585)", "T2 construct": "Origene RC213845, transient expression; also called HEK293T-CD96 (iso1)", "T2 sequence": "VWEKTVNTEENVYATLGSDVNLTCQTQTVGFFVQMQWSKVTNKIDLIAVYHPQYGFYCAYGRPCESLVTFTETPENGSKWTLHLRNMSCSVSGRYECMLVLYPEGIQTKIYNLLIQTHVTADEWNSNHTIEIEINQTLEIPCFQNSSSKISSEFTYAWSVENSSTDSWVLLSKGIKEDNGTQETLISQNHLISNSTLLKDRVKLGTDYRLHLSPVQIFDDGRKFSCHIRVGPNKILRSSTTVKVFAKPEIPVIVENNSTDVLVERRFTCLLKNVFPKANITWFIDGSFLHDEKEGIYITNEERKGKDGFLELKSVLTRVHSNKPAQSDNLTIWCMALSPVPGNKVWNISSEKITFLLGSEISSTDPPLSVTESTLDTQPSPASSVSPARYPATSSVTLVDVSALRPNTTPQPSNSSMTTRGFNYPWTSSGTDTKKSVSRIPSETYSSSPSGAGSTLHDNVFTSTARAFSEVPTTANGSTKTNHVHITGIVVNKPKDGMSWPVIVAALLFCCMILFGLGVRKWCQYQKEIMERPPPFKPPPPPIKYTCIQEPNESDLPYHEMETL", "assay": "FACS, Ab 0.08 nM", "description": "(§1) Isoform 1 of hu-CD96 (Origene, catalog #RC213845) was transiently expressed in HEK293T cells following standard lipofectamine or Fugene transfection protocol. […] Cells were washed, and binding was detected by incubation with anti-mouse IgG-FITC (Biolegend, catalog #406001) for 20 minutes at 4° C. Cell binding was analyzed by flow cytometry with a CytoFLEX (Beckman Coulter). Binding curves were calculated as a percentage of cells positive for bound antibody."}, "[3]": {"biological_target": "T2, hu-CD96 isoform 1 on HEK293T cells", "assay": "FACS, Ab 0.016 nM", "description": "as §1"}, "[4]": {"biological_target": "T3, hu-CD96 isoform 2 on CHO cells (human, UniProt P40200 22-585)", "T3 construct": "also called CHO-CD96 (isoform 2); CD96-CHOs", "T3 sequence": "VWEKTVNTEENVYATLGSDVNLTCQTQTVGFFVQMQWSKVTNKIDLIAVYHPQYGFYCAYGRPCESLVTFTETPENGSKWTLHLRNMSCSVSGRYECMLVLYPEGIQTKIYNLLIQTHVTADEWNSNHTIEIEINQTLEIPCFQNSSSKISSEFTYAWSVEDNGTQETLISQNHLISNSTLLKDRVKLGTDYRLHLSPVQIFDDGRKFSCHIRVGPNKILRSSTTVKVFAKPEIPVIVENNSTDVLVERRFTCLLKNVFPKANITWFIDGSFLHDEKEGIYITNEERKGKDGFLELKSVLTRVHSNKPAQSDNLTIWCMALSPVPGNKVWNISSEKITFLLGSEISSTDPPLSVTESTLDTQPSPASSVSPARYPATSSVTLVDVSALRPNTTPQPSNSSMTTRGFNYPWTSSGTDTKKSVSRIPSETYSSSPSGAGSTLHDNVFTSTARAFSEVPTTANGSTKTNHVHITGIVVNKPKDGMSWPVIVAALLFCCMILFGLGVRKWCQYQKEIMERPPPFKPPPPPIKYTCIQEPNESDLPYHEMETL", "assay": "FACS, Ab 0.0032 nM", "description": "as §1\nIsoform 2 of hu-CD96 (DNA construct: Origene, catalog #RC221005) was expressed on a single-cell-clone-derived CHO stable cell line. Binding of the anti-CD96 antibodies to the CHO cells were determined as described above with isoform 1 of hu-CD96."}}}
{"binder": "B1", "values": [{"measurement": "% positive", "setting": "[1]", "result": 16.8, "unit": "%"}]}
{"binder": "B2", "values": [{"measurement": "% positive", "setting": "[2]", "result": 16.5, "unit": "%"}, {"measurement": "% positive", "setting": "[3]", "result": 4.4, "unit": "%"}, {"measurement": "% positive", "setting": "[4]", "result": 0.1, "unit": "%"}]}
{"binder": "B3", "values": [{"measurement": "% positive", "setting": "[2]", "result": 0.8, "unit": "%"}, {"measurement": "% positive", "setting": "[3]", "result": 0.5, "unit": "%"}, {"measurement": "% positive", "setting": "[4]", "result": 0.5, "unit": "%"}]}
{"binder": "B4", "values": [{"measurement": "% positive", "setting": "[1]", "result": 37.2, "unit": "%"}]}
{"binder": "B5", "values": [{"measurement": "% positive", "setting": "[1]", "result": 19.7, "unit": "%"}]}
{"binder": "B6", "values": [{"measurement": "% positive", "setting": "[1]", "result": 41, "unit": "%"}]}
{"binder": "B7", "values": [{"measurement": "% positive", "setting": "[2]", "result": 8.5, "unit": "%"}, {"measurement": "% positive", "setting": "[3]", "result": 1, "unit": "%"}, {"measurement": "% positive", "setting": "[4]", "result": 0.1, "unit": "%"}]}
{"binder": "B8", "values": [{"measurement": "% positive", "setting": "[2]", "result": 1.5, "unit": "%"}, {"measurement": "% positive", "setting": "[3]", "result": 0.5, "unit": "%"}, {"measurement": "% positive", "setting": "[4]", "result": 0.3, "unit": "%"}]}
